Measured values taken from patent US9801923B2, “Fusion proteins containing insulin-like growth factor-1 and epidermal growth factor and variants thereof and uses thereof” (IGF Oncology, LLC, priority 2014, dated 2017).
Read-outs that look alike come from different tables or passages of the source.

Tests used:
L929 cells = assay: 765TNFa activity assay, killing of L929 cells; format: cell-based; conditions: 24 hours
Description: L929 cells were plated at 10,000 cells per well in two 96-well plates in their recommended growth medium with 2% fetal bovine serum. They were grown for 2 days at 37° C. in a 5% CO2 humidified atmosphere. In one plate, after the 2 days incubation 1 ug/ml final concentration actinomycin D was added; in the other plate no actinomycin D was added. 765TNFa was then added at a range of concentrations. Plates were incubated 24 hours more. Then cell viability was quantified with DOJINDO cell counting kit-8 according to manufacturer's instructions. […] These are even lower IC50s than are reported in the literature for TNF-alpha.

MCF-7 tumor cells [1] = assay: in vitro cytotoxicity assay, inhibition of proliferation of MCF-7 tumor cells; format: cell-based; conditions: Homo sapiens, MCF7, read-out: IC50 (concentration needed for 50% inhibition of cell proliferation)
Description: Five-thousand MCF7 cells were plated per well in a 96-well test plate in 100 ul of rich media on day 0. A shadow plate was made for each test plate, with each well of the shadow plate containing media or 3× the intended final concentration of test agent in media in each well. As a negative control, media is used. […] After making the shadow plate, 50 ul is transferred from each well of the shadow plate to the corresponding well of the test plate to generate the final concentrations of test agent in the wells of the test plate. Cell proliferation is determined by adding Dojindo CCK-8 reagent and incubating and measuring absorbance of the dye according to the manufacturer's instructions.

[2] = system: A-431 human epithelial carcinoma cells; assay: in vitro proliferation inhibition of A-431 cells; format: cell-based; conditions: 4 days with drug
Description: A-431 human epithelial carcinoma cells were seeded at 5,000 cells per well in 96-well plates and grown for 1 day. A-431 cells have abundant EGF receptors. After 1 day growth, free bendamustine and 765EGF-bendamustine were added to the plate at concentrations ranging from 200 micromolar bendamstine to 6 nM and from 20 microEq/L 765EGF-bendamustine down to 0.6 nM. The plates were incubated with drug at 37 degrees C. under a humidified 5% CO2 atmosphere for 4 days, and then DOJINDO cell counting kit-8 reagent was added to wells to read proliferation. The plates were read according to manufacturer's instruction. There was a huge difference between free bendamustine and EGF-bendamustine. […] The difference in effectiveness was more than 1000-fold expressed in terms of the concentration of bendamustine groups.

[3] = format: physicochemical
From the text: These smaller fragments are seen on SDS-PAGE.

IGF receptors = IGF receptors (Homo sapiens, UniProt P08069); assay: competition binding of refolded IGF fusion proteins to IGF receptors against radioactive wild type IGF; conditions: Ni eluates refolded 3 hours at room temperature, read-out: approximate binding constants (KDs)
Description: 2 ml of each of the original Ni eluates from Example 1 was mixed with about an equal volume of 100 mM glycine, 6 M urea, pH 9.5, concentrated by ultrafiltration in a CENTRICON 3 kDa filter unit, then brought up again in that buffer and concentrated to about 420 ul. Then they were diluted to 2 mg/ml for 403IGF, 764IGF, and 765IGF, and 4 mg/ml for 784IGF and 2.4 mg/ml for 785IGF.
200 ul of each of these was mixed rapidly with 1.8 ml of refold buffer. Refold buffer was 1.4 M urea, 100 mM glycine, 0.5 M NaCl, 19% ethanol, 0.5 mM GSSG, 4 mM GSH, pH 9.5. They were refolded at room temperature for 3 hours, and then tested in a binding assay for competition binding to IGF receptors against […] radioactive wild type IGF (Perkin Elmer, Inc.) For comparison, commercial Long-R3-IGF (LR3IGF) was also tested.

[4] = molecular target: T1, type 1 IGF receptors on MCF7 cells (Homo sapiens, UniProt P08069); assay: 765IGF binding assay to IGF-1 receptor on MCF7 cells (125I IGF-1 competition); conditions: overnight at 4° C.
T1 construct: type 1 IGF receptors that are abundant on MCF7 cells; host or cells: MCF7
Description: Theory of assay: Radioactive ^125I labeled insulin-like growth factor-1 (IGF-1) competes with a test ligand for binding to type 1 IGF receptors that are abundant on MCF7 cells (a human breast cancer cell line) in vitro.
MCF7 cell media: 500 mL MEM, 0.01 mg/mL bovine insulin; 5 mL sodium pyruvate, 5 mL non-essential amino acids, 10 mL sodium bicarbonate, 10 mL fetal bovine serum, 5 mL penicillin/streptomycin.
MCF7 cells (ATCC HTB-22) were plated at 20,000 cells per well in a volume of 0.5 mL/well in a 48-well tissue culture plate (flat bottom with low evaporation lid) and placed in a cell culture incubator set at 37° C. with 5% CO2. After 2-3 days in culture the plates were washed 2× with 0.5 mL per well of cold binding assay buffer (100 mM Hepes-NaOH, pH 7.2; 120 mM NaCl; 5 mM KCl; 1.2 mM MgSO4; 0.1% BSA). After the final wash, 0.5 mL of binding assay buffer was added to each well and the plates are placed at 4° C. for 2 to 6 hours.
Test ligands were prepared at a concentration of 10 micromolar (long-R3-IGF) or 20 micromolar (765IGF and IGF-MTX) in 5 mM HCl in a volume of 200 ul. To determine the concentration, the molecular weight of 765IGF (9742 daltons) and long-R3-IGF (9111 daltons) are used. […]
The plates were then incubated overnight at 4° C. […] Cells were lysed with 0.5 mL 300 mM NaOH, 1% SDS and the lysates were counted on a gamma counter.

[5] = molecular target: T2, dihydrofolate reductase (DHFR) (Homo sapiens, UniProt P00374); assay: inhibition of dihydrofolate reductase (Sigma-Aldrich assay kit); format: biochemical
T2 construct: purchased Sigma-Aldrich
T2 sequence (P00374 1-187): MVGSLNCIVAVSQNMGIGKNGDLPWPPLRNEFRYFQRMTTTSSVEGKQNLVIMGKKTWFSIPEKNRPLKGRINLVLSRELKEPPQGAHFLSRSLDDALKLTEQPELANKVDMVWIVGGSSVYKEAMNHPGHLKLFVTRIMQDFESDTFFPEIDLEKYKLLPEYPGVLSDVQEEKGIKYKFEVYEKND
Description: The experiments were done with the dihydrofolate reductase assay kit from Sigma-Aldrich (St. Louis, Mo., USA), according to the manufacturer's instructions. In the assay dihydrofolate reductase is mixed with pH 7.5 buffer. […] It was incubated for 30 seconds to allow inhibitor binding. Then NADPH is added to 50 uM final concentration, and then dihydrofolic acid is added to 60 uM final concentration. The reaction is monitored by measuring absorbance at 340 nm.

MCF-7 tumor cells [6] = conditions: for comparison, McTavish et al., 2009; cited from earlier work

Chain of IGF receptors (P08069 31-736 limits assumed): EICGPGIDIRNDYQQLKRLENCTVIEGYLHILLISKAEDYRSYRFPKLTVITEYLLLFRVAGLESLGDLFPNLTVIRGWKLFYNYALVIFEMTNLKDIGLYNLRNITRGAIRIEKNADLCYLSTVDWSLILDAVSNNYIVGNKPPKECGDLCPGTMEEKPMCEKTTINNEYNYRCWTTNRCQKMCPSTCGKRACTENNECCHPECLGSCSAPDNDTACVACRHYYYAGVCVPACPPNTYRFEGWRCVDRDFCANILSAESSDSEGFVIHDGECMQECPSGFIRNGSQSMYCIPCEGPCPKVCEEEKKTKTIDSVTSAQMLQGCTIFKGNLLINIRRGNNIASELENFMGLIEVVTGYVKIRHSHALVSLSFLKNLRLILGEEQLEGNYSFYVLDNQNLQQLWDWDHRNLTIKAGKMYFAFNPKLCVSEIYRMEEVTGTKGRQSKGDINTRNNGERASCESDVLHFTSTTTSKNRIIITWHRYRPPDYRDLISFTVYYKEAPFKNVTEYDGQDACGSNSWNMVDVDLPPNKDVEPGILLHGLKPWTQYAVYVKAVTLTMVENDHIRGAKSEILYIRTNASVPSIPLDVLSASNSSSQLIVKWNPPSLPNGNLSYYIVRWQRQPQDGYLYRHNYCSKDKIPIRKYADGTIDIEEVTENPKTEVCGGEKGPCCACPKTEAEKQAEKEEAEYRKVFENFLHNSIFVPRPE
Chain of IGF receptors (P08069 741-1367 partner limits assumed): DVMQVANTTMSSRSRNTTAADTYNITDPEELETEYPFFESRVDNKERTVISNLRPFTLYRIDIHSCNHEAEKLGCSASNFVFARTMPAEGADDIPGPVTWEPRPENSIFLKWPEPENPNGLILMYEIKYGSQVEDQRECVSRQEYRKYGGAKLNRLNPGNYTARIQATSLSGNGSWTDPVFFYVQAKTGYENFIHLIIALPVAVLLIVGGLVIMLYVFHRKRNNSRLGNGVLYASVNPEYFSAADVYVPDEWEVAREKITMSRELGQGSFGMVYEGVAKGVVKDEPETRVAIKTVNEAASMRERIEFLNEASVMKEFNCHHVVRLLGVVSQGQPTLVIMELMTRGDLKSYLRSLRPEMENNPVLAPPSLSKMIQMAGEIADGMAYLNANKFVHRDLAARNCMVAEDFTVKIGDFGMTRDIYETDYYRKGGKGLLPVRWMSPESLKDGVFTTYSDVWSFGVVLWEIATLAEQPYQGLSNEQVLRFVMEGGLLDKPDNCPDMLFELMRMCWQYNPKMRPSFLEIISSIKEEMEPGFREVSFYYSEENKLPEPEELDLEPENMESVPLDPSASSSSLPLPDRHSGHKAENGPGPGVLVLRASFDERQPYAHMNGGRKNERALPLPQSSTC
T1 sequence (P08069 31-736 limits assumed): as the sequence (P08069 31-736 limits assumed) above
T1 sequence (P08069 741-1367 partner limits assumed): as the sequence (P08069 741-1367 partner limits assumed) above

765TNFa: soluble form of tumor necrosis factor alpha fused to SEQ ID NO:1 leader, SEQ ID NO:17
IC50 for killing the cells (L929 cells; L929 cells with 1 ug/ml actinomycin): less than 79 pg/ml
IC50 for killing the cells (L929 cells; L929 cells with no actinomycin): about 70 ng/ml

CN(Cc1cnc2nc(N)nc(N)c2n1)c1ccc(C(=O)N[C@@H](CCC(=O)O)C(=O)O)cc1 [Methotrexate, methotrexate]
IC50 (MCF-7 tumor cells [1]): 88 nM

Cn1c(CCCC(=O)O)nc2cc(N(CCCl)CCCl)ccc21 [bendamustine]
concentration above which proliferation was inhibited [2]: above 10 micromolar
IC50 ([2]; Homo sapiens, 96 h): ~90000 nM

B1: IGF132: variant of IGF-1 with reduced binding to soluble IGF binding proteins, SEQ ID NO:4 (protein)
chain: FVNQHLCGSHLVEALYLVCGDRGFYFNKPTGYGSSSRRAPQTGIVDECCFRSCDLRRLEMYCAPLKPAKSA
stability to storage [3]: breaks down to produce a significant amount of smaller molecular weight fragments

B2: LR3IGF: commercial Long-R3-IGF variant of IGF-1 (Sigma Aldrich), SEQ ID NO:5 (protein)
chain: MFPAMPLSSLFVNGPRTLCGALVDALQFVCGDRGFYFNKPTGYGSSSRRAPQTGIVDECCFRSCDLRRLEMYCAPLKPAKSEA
Kd (IGF receptors): ~1 nM
Kd [4]: ~3 nM

B3: LR3IGF-MTX (conjugate)
chain: B2 chain
IC50 ([5]; DHFR, concentration of conjugated MTX groups, read-out: IC50): 99 nM
IC50 ([5]; IC50 in nEq/L divided by MTX per IGF, read-out: inhibition constant in terms of protein concentration): 35 nM
IC50 (MCF-7 tumor cells [6]): ~400 nM

B4: 785IGF: mutTrx-IGF132 fusion protein, SEQ ID NO: 16 (protein)
chain: MVKQIESKTAFQEALDAAGDKLVVVDFSATWCGHCKMIKPFFHSLSEKYSNVIFLEVDVDDSQDVASESEVKSMPTFQFFKKGQKVGEFSGANKEKLEATINELVGSKSGHHHHHHSAKGFVNQHLCGSHLVEALYLVCGDRGFYFNKPTGYGSSSRRAPQTGIVDECCFRSCDLRRLEMYCAPLKPAKSA
Kd (IGF receptors): ~40 nM

B5: 764IGF: His6-K5-IGF132 fusion protein, SEQ ID NO: 18 (protein)
chain: MVKGKHHHHHHNGKGKSKFVNQHLCGSHLVEALYLVCGDRGFYFNKPTGYGSSSRRAPQTGIVDECCFRSCDLRRLEMYCAPLKPAKSA
Kd (IGF receptors): ~100 nM

B6: 403IGF: His6-IGF fusion protein, SEQ ID NO: 14 (protein)
chain: MTSGHHHHHHSAGVNGFVNQHLCGSHLVEALYLVCGDRGFYFNKPTGYGSSSRRAPQTGIVDECCFRSCDLRRLEMYCAPLKPAKSA
Kd (IGF receptors): ~2 nM
